“And” between values parts separate entries of the source, which are not always exact repeats. Identical values can stand only once. Non-standard residues stand in square brackets, D forms with d. Residues, ends and D or L forms follow the SMILES beside them. *: point of attachment. Biotin = O=C1N[C@H]2[C@H](CS[C@H]2CCCCC(=O)*)N1; Ahx = NCCCCCC(=O)O

For orientation: share remaining means the share of the starting amount still present when the sample was taken. High values mean less turnover, low ones more turnover.

The conditions of data set [1]: cited from earlier work. The source says: Pep-1L was conjugated with NOTA, a chelator that can form a six-coordinate complex with Cu-64 that results in a high stability constant (log K=21.6) by CPC scientific Inc.. […] The Cu-64 radiolabeling conditions for Pep-1L were well optimized in this work for high radiochemical purity of >98%, without any need for additional purification methodologies with a specific activity of 32-35 MBq/μg (Figure 1).

Data set [2] relates to B16F10-Tet-hIL13RA2 tumors. The experiment in a line: microPET/CT imaging, ROI analysis, in doxycycline-inducible B16F10-Tet-hIL13RA2 tumor model. The data set is classed as in vivo, mice. As to the method: (§1) 7 days after tumor cell implantations, mice were divided into induced and uninduced (control) groups (n=4/group). To induce hIL13RA2 expression, doxycycline was administered intraperitoneally (2.5 mg/mouse) every 12 hours for 2 days. After IL13RA2-induction, [^64Cu]Pep-1L was intravenously injected to mice bearing induced or control (uninduced) subcutaneous tumors and microPET/CT imaging was performed 4 h post intravenous injection. […] Other notable findings were that there was radiotracer accumulation in liver and kidney in both induced and control animals, which are primary organs for peptide clearance. […]
(§2) B16F10 murine melanoma cell line was cultured in DMEM base media. […] Cell number was calculated using a hemocytometer and required number of B16F10 cells was suspended in DMEM media. […]
(§3) Mice bearing subcutaneous tumors were grouped into two groups (n=4) and placed in an induction chamber containing ~2% isoflurane/oxygen then secured to a custom double bed for placement of tail vein catheters. […] Samples of tumor, blood, lung, liver, spleen, kidney, muscle and heart were harvested, weighed and then counted on the gamma counter with a standard dilution of the injectate. The percentage of the injected dose per gram of tissue (%ID/g) was calculated as described above with p values ≤ .05 considered statistically significant (n=4).

A short description of data set [3]: Biodistribution in mice bearing IL13RA2-expressing G48 xenografts. In kind it is in vivo. Conditions: athymic nude, mouse, in vivo, iv, total radioactivity. As to the method:
(§4) Biodistribution studies with [^64Cu]Pep-1L were performed in mice bearing IL13RA2-expressing G48 tumors (n=4) to confirm in vivo binding. […] The uptake ratios for target to non-target (tumor: muscle) increased from 3.7 to 6.0 from 4 h to 24 h (Figure 4B).
(§5) Figure 4 In vivo properties of [^64Cu]Pep-1L (A) biodistribution and (B) tumor-to-muscle (target: nontarget) ratio of [^64Cu]Pep-1L in mice bearing IL13RA2-expressing tumor xenografts 4h and 24h post injection (n=4) with p values ≤ .05 considered statistically significant.
(§6) Athymic nude mice (Taconic Farms) were housed in a pathogen-free facility of the Animal Research Program at Wake Forest School of Medicine under a 12:12-h light/dark cycle and fed ad libitum. All animal experiments were conducted under IACUC approved protocols in compliance with the guidelines for the care and use of research animals established by Wake Forest Medical School Animal Studies Committee. IL13RA2-expressing G48 tumors cells (1 × 10^5 cells suspended in 10 μL) were implanted in the left flank of nude mice (25-30 g) as described previously. The presence of viable tumors was confirmed through bioluminescence imaging. Standard biodistribution studies were performed in the same nude mice with flank tumors (n=4) at 10-15 days after tumor implantation. Mice were anesthetized with 1% isoflurane-oxygen and approximately 3.7- 4.6 MBq of [^64Cu]Pep-1L was administered via tail vein injection. […] Peptide concentration of 15 mg/kg was used as the blocking agent and was intravenously injected via tail vein 15 min prior to the radiotracer. The tumor and organs of interest were dissected and gamma counted using Wallac 1480 Wizard gamma counter (Perkin Elmer, Turku, Finland). The concentration of the radioactivity in the tumor and organs were expressed in percentage injected dose per gram (%ID/g) of radioactivity with p values ≤ .05 considered statistically significant and uptake ratio of tumor-to-muscle was calculated.

Data set [4] concerns IL13RA2-expressing G48 tumors. The data set is described as above. In kind it is in vivo. Conditions: G48 tumor bearing mice, 24 h post injection, non-blockade vs blockade group. As to the method: as §4, §5, §6
Data set [5] in a line: in vitro. The settings on record: human, human serum.
Protocol: The in vitro serum stability of the radiotracer [^64Cu]Pep-1L in human serum was performed at different time points and was analyzed through radioTLC spotting (Figure 2).
Figure 2 In vitro serum stability of [^64Cu]Pep-1L Reverse-phase C18 radio-TLC analysis of [^64Cu]Pep-1L over a 24 hour period post production.
The in vitro serum stability of [^64Cu]Pep-1L was performed using human serum (Sigma Aldrich) following previously published methods [38, 48]. Approximately 0.037 MBq/10 μL of [^64Cu]Pep-1L was added to the serum vial, to a final volume of 100 μL and incubated at 37°C [35]. 1 μL of the sample mixture was removed and spotted on a reverse C18-TLC plate at 1 h, 2 h, 4 h, 18 h and 24 h after the radiotracer synthesis and the percentage of bound Cu-64 was determined through radioTLC analysis as mentioned above [48].
Data set [6] is described as follows: in vivo. The settings on record: athymic nude, mouse, iv, total radioactivity, tumor uptake. Further details: species or system mice. As to the method: as §1, §2, §3
Data set [7] concerns IL13RA2-expressing G48 cells. The experiment in a line: In vitro cell uptake assay with and without unlabeled Pep-1L blockade. In kind it is cell-based, human. As to the method: Previously, we reported that this cell line contains about 4,000,000 IL13RA2 binding sites.
Figure 3 Cell uptake of [^64Cu]Pep-1L Uptake of [^64Cu]Pep-1L in IL13RA2-expressing G48 cells after 1, 3, and 4 h of exposure. […] The data were expressed as % injected dose (ID)/mg of protein present in each well with p values ≤ .005 considered statistically significant (n=6).
The in vitro reactivity, binding affinity and specificity for [^64Cu]Pep-1L were determined using human GBM cell line G48, following previously reported methods. 1 × 10^5 cells were then seeded into each well of a 6-well culture. G48 cells were incubated overnight at 37°C with 5% CO2 in an incubator. […] The radioactivity was counted using the Wallac 1480 Wizard gamma counter (Perkin Elmer, Turku, Finland). […]
The uptake data in each sample from each well and the standard counts for each condition were expressed as counts per minute (cpm) of activity and were decay corrected for elapsed time. The cpm values of each well were normalized to the amount of radioactivity added to each well and the protein concentration in the well and expressed as percent uptake relative to the control condition. The data were expressed as %ID/mg of protein present in each well with p values ≤ 0.005 considered statistically significant.

As for `O=C(O)CN1CCN(CC(=O)O)CCN(CC(=O)O)CC1` [NOTA, 1,4,7-triazacyclononane-1,4,7-triacetic acid], in data set [1], the “stability constant (log K) of six-coordinate complex with Cu-64” value is 21.6.

As to `CSCC[C@H](NC(=O)[C@H](CCC(=O)O)NC(=O)CNC(=O)[C@H](CS)NC(=O)[C@H](C)N)C(=O)NCC(=O)N[C@@H](Cc1c[nH]c2ccccc12)C(=O)N[C@H](C(=O)N[C@@H](CCCNC(=N)N)C(=O)N[C@@H](CS)C(=O)NCC(=O)NCC(=O)NCC(=O)N[C@@H](CO)C(=O)NCCCCCC(=O)N[C@@H](CCCCN)C(=O)N[C@@H](CCCCNC(=O)CCCC[C@@H]1SC[C@@H]2NC(=O)N[C@@H]21)C(N)=O)C(C)C` [[^64Cu]Pep-1L, metal not drawn] (H-ACGEMGWVRCGGGS[Ahx]KK(Biotin)-NH2), the “tumor accumulation, doxycycline-induced vs non-induced (ROI analysis of microPET/CT)” value in data set [2] (athymic nude mice, 4.62-5.5 MBq i.v., 20 min scan 4 h post injection, doxycycline 2.5 mg/mouse i.p. every 12 h for 2 days, n=4/group) is given as ~ 3 fold. For the same compound, in data set [2] (summary of PET/CT and post-necropsy biodistribution, doxycycline pretreatment), the “binding of induced vs uninduced tumors (PET/CT and post-necropsy biodistribution, abstract)” value is on record as 3-4 fold. Also, the tissue to tissue ratio at 4 h in data set [3] amounted to 3.7. For the same compound, in data set [3], the tissue to tissue ratio at 24 h came to 6. Besides, the tissue uptake at 24 h in data set [3] (blood uptake, 24 h non-blockade) was 0.62 ± 0.579 %ID/g; in data set [3] (brain uptake, 24 h), approximately 0.009 %ID/g; in data set [3] (heart uptake, 24 h non-blockade), 1.21 ± 1.01 %ID/g; in data set [3] (kidney uptake, 24 h non-blockade), 17.4 ± 1.41 %ID/g; in data set [3] (liver uptake, 24 h non-blockade) it was 9.86 ± 1.59 %ID/g; in data set [3] (lung uptake, 24 h non-blockade) it was 3.58 ± 1.08 %ID/g. Besides, the tissue uptake at 24 h in data set [3] (muscle uptake, 24 h non-blockade) came out at 0.41 ± 0.038 %ID/g; in data set [3] (tumor uptake, 24 h non-blockade), 2.43 ± 0.626 %ID/g. The tissue uptake at 4 h in data set [3] (brain uptake, 4 h) was approximately 0.013 %ID/g; in data set [3] (nude mice with G48 flank tumors, 3.7-4.6 MBq i.v. tail vein, 4 h post injection, gamma counting, mean ± SD, n=4, read-out: tumor uptake, 4 h), 1.38 ± 0.09 %ID/g; in data set [6] (doxycycline-induced tumors), 14.1 ± 0.246 %ID/g; in data set [6] (non-induced tumors), 4.179 ± 0.007 %ID/g. In data set [4], the “blockade of tumor uptake by pre-injected unlabeled peptide” value is 5 fold and 3 fold. This compound also had a fraction remaining at 24 h, 0.37 MBq/mL in data set [5] of approximately 90%. Moreover, the “cell uptake in G48 cells under binding site blockade with unlabeled Pep-1L” value in data set [7] (0.0185 MBq/well, 37°C, 1, 3, 4 h, blocker 5 μM (50x excess) unlabeled peptide 15 min before tracer, gamma counting, %ID/mg protein) is “significantly inhibited”. The “course of cell uptake over time” value in data set [7] (37°C, 1 to 4 h exposure) is recorded as “continued increase”.

(Values after publication PMC5584224, “Peptide-based PET imaging of the tumor restricted IL13RA2 biomarker” (Oncotarget, 2017).)
